Article PMC5006590

Experiment: pseudovirus neutralisation, TZM-bl
Conditions: glycan lost; control: wild type

| Substance | other: neutralisation sensitivity, other: ID50 (reciprocal plasma dilution) |
| --- | --- |
| HIV-1 CAP239.G3 Env: N332A | decreases, 204.60 vs 1096.00 |
| HIV-1 25711-2.4 Env: N301A | decreases, 749.81 vs 1822.04 |
| HIV-1 25711-2.4 Env: N160A | no change, 1484.35 vs 1822.04 |
| HIV-1 CAP239.G3 Env: N160A | increases, 4184.00 vs 1096.00, Fold decrease in ID50 0.26 |
| HIV-1 25711-2.4 Env: N332A | decreases, 357.36 vs 1822.04 |
